Biological target: the molecule itself
Test: SEC-MALS; 0.2 to 0.4 mg/ml purified His-tag protein in 10 mM phosphate buffer, pH 7.0, 500 mM NaCl; self-association, dimer the only species

B1: Recombinant murine 6xHis-PDCD10, wild type (natural protein)
chain: not shown
notes: PDCD10 (CCM3), murine, full length, amplified from a mouse fibroblast cDNA library and cloned into pMCSG7-His; 212 amino acids; Dimer in solution by SEC-MALS; also called CCM3; WT; not shown: 6xHis, N-terminal, kept
  stoichiometry N: 2

B2: Recombinant murine 6xHis-PDCD10 Δ5KA mutant (K169A, K172A, K179A, K183A, K186A) (natural protein)
chain: not shown
notes: PDCD10 (CCM3), murine, full length, with five K-to-A mutations made by site-directed mutagenesis; Dimer in solution by SEC-MALS; also called Δ5KA PDCD10; mutant Δ5KA ccm3; source: E. coli BL21DE3, purified; not shown: 6xHis, N-terminal, kept
  stoichiometry N: 2

Reference: article PMC2909203, “Defining the Functional Domain of Programmed Cell Death 10 through Its Interactions with Phosphatidylinositol-3,4,5-Trisphosphate” (PLoS ONE, 2010)
